{"source": "patent JP2018150260A", "about": "(dated 2018)", "molecular_target": "T1, myc3 タグ融合 PB1 サブユニット(1aa-81aa), expressed in 293T cells (influenza virus H1N1, UniProt P03431 1-81)", "T1 construct": "range 1-81", "T1 sequence (P03431 1-81)": "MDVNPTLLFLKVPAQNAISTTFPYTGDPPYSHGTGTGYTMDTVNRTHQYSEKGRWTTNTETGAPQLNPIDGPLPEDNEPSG", "assay": "Western blot of 293T lysate (denatured protein)"}
{"binder": "PA 11-9.4モノクローナル抗体 (antibody, V domains shown, also called PA 11-9.4 抗体) VH: AEFVKPGASVKLSCIASGFNIKDTYMYWVKQRPEQGLEWIGRIDPANGNTKYDPKFQGKATITTDTSSNTAYLQVSSLTSEDTAVYYCAYRYDYYFDYWGQGTTLTVSS VL: not shown", "values": [{"measurement": "binding result", "value": "no binding"}]}
